Reference: the DeepSol protein solubility set

Experiment: soluble on expression in E. coli; label from the status in PepcDB or PDB records

Sequence	soluble on expression in E. coli
MGSDKIHHHHHHMPYDSTDREIMRFLQGDIPLESRPYKNLAERLELSEEEIVLRVKKLREKGFLRRMGAVLRHRQAGFAVNAMVAWKLENEEQADRAGKIMAGYKEISHCYIREVPPDFDYSIFSMIHVKNEERLAEIIEEISLQTGIGKYIIIRSSRELKKESMQYF	not soluble
MGSDKIHHHHHHMPYSSKEEAAQGWADIIARARSCSAGAARKAVAQLGRRDLFFLLTRLLGREEMFNDWCFARCAEVQRQPDGMLDLWAREHYKSTIITFGQSIRDILNDPEITIGIFSHSRPVAKGFLAQIKHEFEQNHALKTLYPDVLYSDPKRQSPRWSLDGGLVVRRSTNPKEATVEAWGLVDGQPTGKHFRLLVYDDVVTRESVTSPEMIAKVTECWALSLNLGARGGACRTIGTRYHYNDTYKTMMDRKAAEPRIHAATADGTPDGPSVFLPQNELADKRRRMGPFVFGCQMLQNPVADRMQGFREEWLRWWQPGAASWQAMNRYILVDPAASRKEQADWTVMLVVGLGADGNYYLIDGIRDRLNLTGRAGALFRLHRTYRPLAVGYEQYGMQADIEYMHTEMDRRNHRFDITPLAGRLAKADRIRRLVPLFEGGRVYLPRVCPFTDSEGRQRDLSRELVTEEYLAFPVCGHDDMLDCLARITDSALGAHPAVDSNAQYESTANMEYPLWT	not soluble
MGSDKIHHHHHHMQDSMLSGLFGALTTEHRLNNIANNLANVNTNGYKRDVLAFKDTMALFAHDEIMEPMANVRSKKLFPEPLHVARPRIAVARTDFSQGSFHYTSDPLDLAISGNGFFKVRTPEGEFYTRNGHFRQTSDGQLVTMQGWPVLSEGGDINLPQGKNLQVASDGRIAVDGVDVGQLQVVTVSDLEGLEKLGGNLYRLREGSTAGEVPVGPDVIVSQGYIETSNVEVVNEMVNMIETQRQFEAYQKVMQTSDTVDRDAITKIGRGR	not soluble
MGSDKIHHHHHHMQENRYNTCDRFLGGLEKDFIITEQIEDSPLTSEPSFLDYGIIAVCNRGSAIIHLLDNKHVWNKNELIFLFPRQLCSMRNVSEDFSAKFIIIPHVLHGDVLSSLRHFDPGFHFFVKDHFYYNIEDNNGIERFQSFCKLIENELERYRGNGLLRERIICYLGIFYMDVYDYYVKVRKKIPFRTSLRKEQLIYDFCSLVAENFKNHKNVGFYADKLNITTTYLSAIMNERCGISAKEFLSIYIVLEVKSLLRDSRLNIQEIAILTNFPSQSTLNRFFRQRTGMTLSQYRKHIFST	not soluble
MGSDKIHHHHHHMQERGLVGLGLRREMLSEFCQQLPSAIDFLEVAPENWMTLGGKYGKQFRQLTEQHTFFCHGLSLSIGSPEPLDLEFVRRIKAFMDLHQIDVYSEHLSYCSGAGHLYDLMPIPFTEAAVKHVARRVKQVEDILYRPLILENVSFYAAPSAQMTELAFLTAVLEEADCKLLLDVNNIYVNSINHQYDALAFLKAMPTERIAYLHIAGHFKESEELLIDTHGSDINAPVWALLDSCYAEHGVLPTLLERDFNLPATAHLLDEINQIHAYQARAKSNLDKRIA	not soluble
MGSDKIHHHHHHMQFERISTEQKKLSLIQTFLHQNALKLDEQIEYFVVGYNDNEQIVVCGGLAGNIIKCVAIDESLRGSGVALQLITELVDLAYTLKRPHLFIYTKPEYATLFKSCGFYIISDANPYVVLLENSATRLQKQCSLWEKMRVDGNRIGSIVMNANPFTLGHRYLIEQALQQCDHLHLFIVGEDASQFSYTERFEMIQQGIFDLSNITLHSGSDYIISRATFPNYFLKDQLITDESYFEIDLKLFRLHIAQALGITHRFVGTELNCPVTAEYNRQMHYWLMDAEMNAPKINVIEIPRKTASNHIISASTVRKHLAEKNWAQLAEFVPMTTLNYLQKCGRF	not soluble
MGSDKIHHHHHHMQHTIQHLYKTHGDDGLLYAWFLSMHTRVDIILCCQKSENELMLVVNSIYDTLRQLERIANYYDPSSELSQVNQRASTAPVMISQSLYRMISLCTEYHKKTLGCFDVTIHSDNYNQDTIHSIHLYPEAQSVFFQQAGTTINLSGFLKGYALDKIREILKVHIIANALINMGNSSVLALGNHPVGTGWKVSFDDQASTTKNHKTQSILLNNECLTTSGNNSDDRKHIISPSSGKPLEGVRQVTVVTDDGTTGEILSTSLFVANQKQRELIMSEFLPKRVIDLELCQMV	not soluble
MGSDKIHHHHHHMQIEMTGITKAFGPVPVLKGVDFTLATGEIHALMGENGAGKSTLMKILTGVHKADQGTILVDGVEQQYKNPKLAEEAGIAFIHQELNILPDLTVTENLFLGRELKSRFGVLKQAEMKRLAERELAELNVFMDVNQLARTLSVGQQQMIEIAKALMTDAKVIIMDEPTAALTEREIRALFSVATALREQGVSIVYISHRMEEIFELCDRITVLRDGVSVSTHRIADTSFEQIVREMVGREMGERYPERQVTLGQTVLEVTGATGKRFEDVSFSVRAGEIVGFSGLMGAGRTEVMRGLFGIDRMKAGTISLNGKTIKIKSPHDAIKQGLGFLTEDRKGEGLFLDFSLRENISLPTIRSLSKSGVISDQSERQFAEGYLKSLSVRHSSMDQPAKSLSGGNQQKVVLAKWLGTKPDVLILDEPTRGVDVGAKKEIYMIMDELAATGVAIIMISSDLPEILGMSDRVYVMREGQMSGMLNQEEATQESIMTLATGGQ	not soluble
MGSDKIHHHHHHMQILTVQMNIAGEWRDVAVVGFYAPEKGTGGPCVLNYDIEHVTSYFHQFAQTAVSVSLPVDNIPLRSPHWHRFLEDIMPAGSSRDYWVKRLGLQDMPNLERDFQLLKYGTIAPIGNLRIKESVPEKAKKSLPVTFSIADVSELQIDFIEYAQSRGAAAGGASGAGGAAPKLLVRLNEQQGVWIDTFQDDPRNLDQPYLVKFPRGKTTLDSDILRAEYHFYHELTQLGFETISVESMKLIEVERGPSLWLPRFDYGVEAGAMVSYGMESVYAILGEPTAKPLLHADVIRRLLAEFNKKENYGNTRTPLDVEAGLEGKSGIEAFVVEWVRRDLLNIAFGNSDNHGRNTSFIKHGNRVQLAPIYDFAPMKADYEMITRTFTWGEGMELGGVYNFPAIAEHLSDLLSPNDLMSALNETAVRLLGLELRLRQRGVPESILAHSGIGFATLEARMQQWGLL	not soluble
MGSDKIHHHHHHMQKPHLLITSAGRRAKLVEYFVKEFKTGRVSTADCSPLASALYMADQHYIVPKIDEVEYIDHLLTLCQDEGVTALLTLIDPELGLLAQATERFQAIGVTVIVSPYAACELCFDKYTMYEYCLRQGIAHARTYATMASFEEALAAGEVQLPVFVKPRNGSASIEVRRVETVEEVEQLFSKNTDLIVQELLVGQELGVDAYVDLISGKVTSIFIKEKLTMRAGETDKSRSVLRDDVFELVEHVLDGSGLVGPLDFDLFDVAGTLYLSEINPRFGGGYPHAYECGVNFPAQLYRNLMHEINVPQIGQYLDDIYMLKHDTVTLISAAELQKIKR	not soluble
MGSDKIHHHHHHMQKSRPEQDVHEDIKILIQTHFGESGQGIHIEVKGDKVSLWGTVDSLAEKDFIGQRIGRIDGVKELDNSLTVANDGKITDKDIEKQVVERFAQSNFEEIMHLGCRASKGIVTLLGHLETQSSERLAKRIASQVRGVKEVRSEIDFLEKAVDDATLVNRVENALVASPWVNAHEIKTSARNGLITLTGMVNTQEEMEWAVDTAYQVPGVKAVVSEIFSRHRSQGEDLYMTEQLVRKLGQHGMTSQLVRAFVQDGIAYMTGEVYSDEDRRWAESMGQHVEGIKSINSSIKVAAHSSK	not soluble
MGSDKIHHHHHHMQLVFDFPVNPKYSLDNFVICSGNETAYRFVRRLTDDEGAENLLYLHGPSGSGKTHLLMAIGAHFSARAGLSSVPCISFKDVDEVYGGEYPAEAVSKLAERFRNAPALLVDDLHLIPDQQAVRVELWQLFNDFYQAGRPIAITGLYPPKELPTIDDHLISRLLWGLVARVDISDDDSRRLIMKKLADDRQIVLPADVIDYLLLHVRRDVPSLIEALDAISRYALAAKRKVSVRLAREALAFHS	not soluble
MGSDKIHHHHHHMQMAVRWQLSGSYFENCSCDVVCPCLLSTKAQLTSRPTKGVCDVGLVFHIDTGNYGDVRLDGLSVALVAHTPGPMADGNWTAAAYIDERADDRQTEALGAIFTGAAGGPMAVLAPMIGTNLGAKKVPIDYRIDGKKRSAAIAGVMQMAVEPLPTMREDGQMWAATGHPVNPDWLGMAMGAQGSTFSDHGMSWDNSGQNGHYAPINWSGE	not soluble
MGSDKIHHHHHHMQPTYLPWMGYFDLIDIADKFVFLDNVQLERSGWQVRNRIRSSQGELMLRVAIATPKRFDETLIHQTQFVTGHPWRKKHLKSIQMNYQKAPYFAQVYPLLESLYQKDETSLSQFNISVINALCTFMGINTPRMLASELVDIEGIKDARLTSICKHLDADQYLSPLGAMAYIEQESSGGDLGENGIDVFYHQFVHPQYTQVYDGFISHLSIIDALFNLGPQNTVTLIRQFRQAPINYTSLPR	not soluble
MGSDKIHHHHHHMQQPLAYRMRPKTLKDVVGQQQLVGPGKIIARMVKAKRLSSMILYGPPGTGKTSIASAIAGSTKYAFRMLNAATDSKKQLQIVAEEAKMSGTVILLLDEIHRLDKTKQDFLLPHLESGRIILIGATTENPYISINPAIRSRTQIFQVFPLTDDDIQHAVERALADEKNGLGSYHVDLAPAAMHHLCTATNGDLRSALNGLELAVLSSSPADDGTIAISQQTIEECLQKKALSADKDGDAHYDVISAFQKSIRGSDVNAALHYLARLVEAGDLKSIMRRLMVIAYEDIGLANPAACAHTVAAVQAADQLGFPEARIPLADAVIELALSPKSNSGISAIDAALTTVRDGHFGDIPADIKDAHYQGAAKLGHGVGYDFPHDHPGDWVAQQYLPDAIKSAKYYEPKTNGRYETALAQQYEKLLKANERNR	not soluble
MGSDKIHHHHHHMQRARCYLLGERAVVLELEPPMSLESQQRIWGLAERLNHHEEVLEVIPGMNNLTVLLAHPQQVALDAIERLQRWWEESESLVFDPRDIDIPVIYGGEAGPDLAEVAAHSGLTVSQVVEAHAAAQYVVYFLGFQPGFAYLGGLNEKLHMPRRAEPRLRVPEGSVGIGGAQTGIYPLATPGGWQLIGRTSLTLFNPQTMPPTLLRPGDNVRFLPQKEGVC	not soluble
MGSDKIHHHHHHMQRYDAVISGAGPAGCSAALSLAQKGRRVLLIDKARFPREKICGDGVTAASTELLEEMGVLELLRQRPGSLTEFRGATFVSPGGTVVQGRILRNGHLSGSSYVIPRMVLDDSLVSRVKEHSSITFLDKTTVTGLVMDGDRARGVATSAGEFCGRIIIAADGAYSPIAKQLDLWNRDKRQQGFAMRAWFSGVEGLGDSIELCYDKAMLPGYGWIFPAGEQRANVGVFLLPRFADQRSTKRLFKSFVKENAFAAARLKNAVMEPGSLKSWPLPFGSFAGRRGRGNVLLAGDAGSFIDPLTGEGIYYALKTGRYAAEAVANALERNDESAALTRYEQLWRGEFSGRVYFPGYAFQHFMNNSWFVDTFMRYTAKKQHRADLLADVVAHNRKRRELFKLLNPFY	not soluble
MGSDKIHHHHHHMQTLTIDVGGSKALFELQLAGHTEQYKIPTGEGFKIEELNNQIAALERDYDLQDYQLAIAVPGLVQHHRLVACKSLPGLNGLSIDTVKTQGTLKIISNDIDAGMQALCDAKYACELLVMCGSGIGMSIAFNGQVFSGATGVAGELGHCRIMSESGEFRLEQLASGDSVRSRNITSQEDLYRAGSYLGMGLAWAVNLLNPNRIWLAGGMMNSTPYYKGCIDNLKRMALSAPLAEMKIHRVDDMETLVCRGLSVILARDVSLT	not soluble
MGSDKIHHHHHHMQVEGLSINLATIREQCGFAEAVDICLKHGITAIAPWRDQVAAIGLGEAGRIVRANGLKLTGLCRGGFFPAPDASGREKAIDDNRRAVDEAAELGADCLVLVAGGLPGGSKNIDAARRMVVEGIAAVLPHARAAGVPLAIEPLHPMYAADRACVNTLGQALDICETLGPGVGVAIDVYHVWWDPDLANQIARAGKMKAILAHHICDWLVPTKDMLTDRGMMGDGVIDLKGIRRRIEAAGFHGAQEVEIFSADNWWKRPADEVIATCVERYRNCC	not soluble
